According to IntAct's records for PubMed 21751375:

What was measured:
ctnb1_mouse Ctnnb1 = ctnb1_mouse Ctnnb1 (UniProt Q02248)
ctnb1_human CTNNB1 = ctnb1_human CTNNB1 (UniProt P35222)
ctnb1_human CTNNB1, sequence (P35222 whole entry): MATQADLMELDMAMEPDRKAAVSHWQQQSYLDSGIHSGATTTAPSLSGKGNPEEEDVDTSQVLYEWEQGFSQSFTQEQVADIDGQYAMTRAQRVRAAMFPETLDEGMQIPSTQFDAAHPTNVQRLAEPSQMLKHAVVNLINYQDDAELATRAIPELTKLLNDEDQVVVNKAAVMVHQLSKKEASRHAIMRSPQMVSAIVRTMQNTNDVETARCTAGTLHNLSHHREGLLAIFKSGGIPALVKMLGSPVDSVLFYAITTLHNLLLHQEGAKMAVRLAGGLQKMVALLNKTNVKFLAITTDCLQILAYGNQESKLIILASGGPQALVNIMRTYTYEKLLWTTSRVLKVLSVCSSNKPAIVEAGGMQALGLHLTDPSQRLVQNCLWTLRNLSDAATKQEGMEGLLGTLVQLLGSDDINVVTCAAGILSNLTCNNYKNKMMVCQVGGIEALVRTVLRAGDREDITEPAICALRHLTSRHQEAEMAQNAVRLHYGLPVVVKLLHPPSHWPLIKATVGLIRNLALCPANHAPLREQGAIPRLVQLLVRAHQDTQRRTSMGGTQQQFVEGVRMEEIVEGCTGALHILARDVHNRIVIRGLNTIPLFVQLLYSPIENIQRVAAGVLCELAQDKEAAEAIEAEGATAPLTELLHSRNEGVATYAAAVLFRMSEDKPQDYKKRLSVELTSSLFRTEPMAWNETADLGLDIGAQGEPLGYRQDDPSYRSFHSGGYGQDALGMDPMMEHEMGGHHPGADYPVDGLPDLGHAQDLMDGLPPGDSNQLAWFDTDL

ctnb1_mouse Ctnnb1, sequence (Q02248 whole entry): as the sequence (P35222 whole entry) above, with P706A counted along it

| Substance | effect of a mutation on the interaction (ctnb1_mouse Ctnnb1) | effect of a mutation on the interaction (ctnb1_human CTNNB1) |
| --- | --- | --- |
| Histone lysine acetyltransferase CREBBP (Mus musculus), P45481 S92A | decreasing interaction |  |
| CREB-binding protein (Homo sapiens), Q92793 S92A |  | decreasing interaction |
